Our source for the protein production values is a protein production outcome set (Wang et al. 2014).

The series can be described thus: label from the status in PepcDB records.
For the sequence “MGSSHHHHHHSSGLVIRGSHMRIALMQHTARPLDPQHNLDLIDDAAARASEQGAQLLLTPELFGFGYVPSQICAQVSAEQVDAARSRLRGIARDRGIALVWSLPGPEGPEQRGITAELADEHGEVLASYQKVQLYGPEEKAAFVPGEQPPPVLSWGGRQLSLLVCYDVEFPEMVRAAAARGAQLVLVPTALAGDETSVPGILLPARAVENGITLAYANHCGPEGGLVFDGGSVVVGPAGQPLGELGVEPGLLVVDLPDQSQDAGSDSADYLQDRRAELHRNWL”, the protein production entry is on record as “not failed”.

For the sequence “MKLPLIMLTALIALTACTSSSTGRKQVMLFSDAELDKMGAASFEDMKKKTPISTDKATNDFVQCVAKSITKNVAKSVHQGDWEVVVFDSAQVNAFALPSGKIGVYTGILNVTENQDQLGAIIGHEVGHVIEHHSNERLSANKLQNMGMAAATAAVGLSDVENKGLWMAGLGLGLQYGVIMPYSRAHESEADIVGQDLMARSGFEPSASIKLWQNMAKLSKGAPAEFMSTHPSNKTRINQLTEHLPSAMTLYKTDSRPNCQKPKVIPSPKA”, the protein production entry is reported as “failed”.

“MKKINSAVLSIASNSMLIIFKLTAGITMNSISVLSEGVHSSIDLIASLIAFFSIKKSSLKEDDDHPFGHGKYENVSGFVEAILIMFAAIMIIYEAFNKLVSNSHVKNIDSGIYIMLISSAVNLFISIILLKSSKDTNSIALEADGMHLFTDFFTSLGVFLGLVLLKLTNIKIIDSITAFLVAILIIKTAVDLIKKSLRDLVDSSLDKDDINKIVKIVKKYPNIKEYHKLRTRRCGNTREIDIHIQIVGTDSLKETHDICSSIEDEIRRVFPDSCTVIHAEPYIEKFHKKSLT”: the protein production result is on record as “failed”.

As to “MRNHPLGIYEKALAKDLSWPERLVLAKSCGFDFVEMSVDETDERLSRLEWTSAQRASLVSAMLESGVAIPSMCLSAHRRFPFGSRDEAVRQRAREIMTKAIRLARDLGIRTIQLAGYDVYYEEHDEGTRQRFAEGLAWAVEQAAAAQVMLAVEIMDTAFMNSISKWKKWDEMLSSPWFTVYPDVGNLSAWGNDVTAELKLGIDRIAAIHLKDTLPVTGDSPGQFRDVPFGEGCVDFVGIFKTLHELNYRGSFLIEMWTEKSSEPVLEIIQARRWIESRMQEGGFTC”, the protein production result was “failed”.

On to “MLVCYSVLACEILWDLPCSIMGSPLGHFTWDKYLKETCSVPAPVHCFKQSYTPPSNEFKISMKLEAQDPRNTTSTCIATVVGLTGARLRLRLDGSDNKNDFWRLVDSAEIQPIGNCEKNGGMLQPPLGFRLNASSWPMFLLKTLNGAEMAPIRIFHKEPPSPSHNFFKMGMKLEAVDRKNPHFICPATIGEVRGSEVLVTFDGWRGAFDYWCRFDSRDIFPVGWCSLTGDNLQPPGTKVVIPKNPYPASDVNTEKPSIHSSTKTVLEHQPGQRGRKPGKKRGRTPKTLISHPISAPSKTAEPLKFPKKRGPKPGSKRKPRTLLNPPPASPTTSTPEPDTSTVPQDAATIPSSAMQAPTVCIYLNKNGSTGPHLDKKKVQQLPDHFGPARASVVLQQAVQACIDCAYHQKTVFSFLKQGHGGEVISAVFDREQHTLNLPAVNSITYVLRFLEKLCHNLRSDNLFGNQPFTQTHLSLTAIEYSHSHDRYLPGETFVLGNSLARSLEPHSDSMDSASNPTNLVSTSQRHRPLLSSCGLPPSTASAVRRLCSRGVLKGSNERRDMESFWKLNRSPGSDRYLESRDASRLSGRDPSSWTVEDVMQFVREADPQLGPHADLFRKHEIDGKALLLLRSDMMMKYMGLKLGPALKLSYHIDRLKQGKF”, for which the protein production entry is listed as “failed”.

Regarding “MQDSLGIMIKKANNALARDSDHYAKSLGLTGMQISTINFIANNEQHHDLFQRDLELEFNIRKATCSSLVSKMEAADLLIRVPAKDDGRYKRLLLTPKARQLATKIERFFETSEQRMATILGVNTAETYEALRQIAVAFSTPTHAPENWYLEHHHHHH”, the protein production result was “not failed”.

For the sequence “SSLRPSPRLLCTATKQKNSGQNLEEDMGQSEQKADPPATEKTLLEEKVKLEEQLKETVEKYKRALADTENLRQRSQKLVEEAKLYGIQAFCKDLLEVADVLEKATQCVPKEEIKDDNPHLKNLYEGLVMTEVQIQKVFTKHGLLKLNPVGAKFDPYEHEALFHTPVEGKEPGTVALVSKVGYKLHGRTLRPALVGVVKEA”, the protein production result is listed as “failed”.

Regarding “MSLFAELTASVNAVRPGRTRMRNYDMPLIVAASTLLLLGLLMVYSASIALADGPRYASYGRYYFVIRHGLFLTAGLLAAAVVLSVPIRVWQRLAVPLFMFALILLVAVLIPGIGREVNGAHRWIPLGPLNFQPSELMKLAALLYAADYTVRKQEHMQAFSRGFLPMACALGGVGMLLLLEPDLGAFMVIVAIAIGILFLGGINGKYFSSLLAVLVGTFLMLIWVSPWRRARLFAYLDPWNEANAYGSAYQLSHSLIALGRGEWFGVGLGASVEKLHYLPEAHTDFLMAVVGEELGFAGVMLVITLFAIIVYRGFDIGRQAIAMERTFAGLVAHGVAMWVGVQAFINMGVCLGLLPTKGLTLPLMSYGGSGIVMNLCALAMLIRVDVENRVMMRGGRV”, the protein production entry was “failed”.

As for “LADVEARARIAIDAAGMGTWDLRPQEGLLLWDDRCKTLFGVPTSTEMSLEVFYAGIYPDDLPLVREAVEHAMRPESDGHYRVEFRIAQPNGLEPRWLLSSGQSQFVDDQCVRFSGVLQDIHAQRQATQALRQLNEMLGER”, the protein production entry is “not failed”.

On to “MRKYLLIGVSAFVLGAGTMAYISPIAQANNAPKAQTYKLLELFGDVLGTVEDQYVTEVDDKKLIEAALDGMLTSLDPHSGYLAPDAFEDMQDTTRGEYGGLGLEVTSEEGVVKVISPMDGTPASRAGIQAGDYITAVNGQSVLGLTVNEAVKQMRGTAGEAVTLTIAREKTDPFDVKLVREVIKPKAAIARMEGDYGYVRLPGFNEKATDALASSVSELKSKNPKMKGLILDLRNNPGGLLDQAVGVADVFLDGGEVVSQRGRDPRNIQRYNARGGDMLNGLPMVVLINQGSASAAEIVAGALQDRKRAEVVGLTSFGKGSVQTVIPLRGGADGALKLTTARYFTPSGRSIQKTGIAPDLEVAQTRDQAQDIANRVWFSEASFKNALNADEGKSRVGAHTPAEAPPTGFDDKKGDFQLQRAIAVLQAGGVAKTPKLPKPAAKVAEVTAKAAAAAGGKTPVTEVK”, for which the protein production result is listed as “failed”.

As to “VRPDGRGKVTGELKYMTDLSFPGMLYGKVLRSAYPHAEIVSVCTIKAEKMEGVQAVVTHKDVPGLNRFGIVIPDQPVLCEDRVRYVGDAIAAVAAETEEIAEAALELIQVEYKELEVMDSPEKALRPNAQRLHEDGNILHRAFFSNGDVEEGFQASDTVFEETYELPRQMHTYMETEGGVAVPEDDGGFTMYAGTQHGYKDRFQLARIFDIPEEKIRIVSSPMGGSFGGKDELNIQPYAALLALKSGRPVKIHQTRKESVRSGIKRHPMKITIKTGADHSGNLLAHDVKIVADTGAYATLGPAVLDFSVEHAAGPYRIPNIRTEGISVFTNNGVAGEFRGFGGNQITFALETHLDRLSGMLGIDPLELRRKNIRKPHDLGPLEHRIAPTDGAAQVLNAISKSPILKKTSRNCGYLQRGTGAAITMHGGGLGFGRMDAAGGRLSLSSEGKITASFGFEECGQGILAAIEQIVMEELGCAAEDISIVIGDTAKVPKSGSSTASRGTSMVWHAIQRLKKPFLAQLKKRAAEWSGCSAENLIPGAAGLRDKNTKALVVTYKELAEKGPLAEETAFDFPTTPDPVVGGHFLYSFGAAAVEVEVDLLTGDVKLIDCEHAIAAGPVVSPQGYRGQIEGGAAMALGYTLMEEAKMTDGRYAAENLDHYLIPGIKDVPDMKLIAIEDLMKGDVYGPRGVGEIGTIAITPAIVKAVHDAVGCWINKLPISREELLEAIDRKGL”, the protein production entry was “failed”.

On to “MLVEDSGHHLPESADIENALDLLLKAQLERAFGPELAEHFWAARQPRTLDERLAFIRKCWIGVFKDSPLSTFGLERLEQLERLCRSKRRGRELSAAEHHQFAEELARLWEQVQRLLPRAAPETSYASSASAGGVHSGDAHTPATLSDAESAHAAPEAMRIEAPATSARSASGCMARVSSDVAAAATNVSLVVLDGENIAWAHGQNAVFSPKGIAIAVDFFRKRGYRCVVFLPDYRRKRADLPTVSASDALVFVPAGEYDDTFALGYAVGHDAILVTNDLLQDHLDQFYPDEGEAREALRKWLGSHRCSFTFVGDEFLPNPHFFLP”, for which the protein production result is recorded as “failed”.

“MFALCDVNAFYASCETVFRPDLWGKPVVVLSNNDGCVIARNAEAKALGVKMGDPWFKQKDLFRRCGVVCFSSNYELYADMSNRVMSTLEELSPRVEIYSIDEAFCDLTGVRNCRDLTDFGREIRATVLQRTHLTVGVGIAQTKTLAKLANHAAKKWQRQTGGVVDLSNLERQRKLMSALPVDDVWGIGRRISKKLDAMGIKTVLDLADTDIRFIRKHFNVVLERTVRELRGEPCLQLEEFAPTKQEIICSRSFGERITDYPSMRQAICSYAARAAEKLRSEHQYCRFISTFIKTSPFALNEPYYGNSASVKLLTPTQDSRDIINAATRSLDAIWQAGHRYQKAGVMLGDFFSQGVAQLNLFDDNAPRPGSEQLMTVMDTLNAKEGRGTLYFAGQGIQQQWQMKRAMLSPRYTTRSSDLLRVK”: the protein production result was “failed”.

Regarding “MKWIDSHIHVDQYKDEEKSRLLKEVENSKEIKGLIAVSMNYQSCKETLSLAKKYPFIYPAIGFHPEQQIHKEECEQIYQLIEQNAEEIVAIGEVGLPYYLRKEDERIAADPYIAVLKKFIELASKYNLPIVLHAVYEDADIVCDLLEKYKVSRAHFHWFKGSDETMKRMMRNGYYISITPDVLHKEKIRKIVSYYPLEYMMVETDGPWEFQEDVITHPRMIREVLKEISSIKNISIDKVAETIYENTSRFYLK”, the protein production entry is “failed”.

On to “MKYLAAYLLLVQGGNAAPSAADIKAVVESVGAEVDEARINELLSSLEGKGSLEEIIAEGQKKFATVPTGGASSAAAGAAGAAAGGDAAEEEKEEEAKEESDDDMGFGLFD”, for which the protein production entry is “failed”.

On to “MSAQEPWTAATAKGTALKNTTLLKALTIGILSILALIPLGIIMDLTSDREMLYHSVVEEIGRSWGEQQTLSGPALVIPYRYFVMEEEVSNDGKTRREVKRTYQDELVILPKKLALDLDLKHDFRTRGIYQSLVYSAALKGQADFSLNSYDIPNLIALDNKNARLVFGVSSNQAIDKVEKIEIKGDSALLSGSLMSGTGLTTGGLEKGFNQGIQVSEASDFSVNFAMTLRGSQSISALPLGEQTLINIQADWPHPSFKGLLPAEREINAKGFTASWNISHLTRNYPQEFVKSNQSTLTEVVANAILFEPVTHYGKIDRSVKYGLLFIVLTFIMLFIFELGQKTSLSIVQYILVGSAMALFYLLLLSLSEHLAFLQAYLIAACIPVLSVSTYVGSATASLKRGVIVGTMLVSLYAVLYSILQLEDYALLMGTGLLVVVLLILMFVTRHQSKNTAQ”, for which the protein production result was “not failed”.

Take “MTKVHPKFPSTCEESLCDSKAAVVLTVWKKSLLFNCDGFTVYNANGELVFRVDNYMNCPRDNIVLMDASGFPLLSIRRKKLSLGDCWMVYDGETERDPIFTARKNVSIISNRKSLAWVSAKKTVLYEIEGSYGQRSCKILDERRNKKKTAEIKRKETVIGGVAFGKDVYKLIVESEMEPRVAMALTIILDQMFRSS”: the protein production result is “failed”.
